Measured values taken from the supplement of paper PMC7877785.
± gives the uncertainty stated by the source.

Experiment: self-splicing fitness, log relative to wild type (ln ratio); higher = more splicing; Tetrahymena group I intron in knt gene, E. coli kanamycin selection, DiMSum; sequences stand for … in CUCUCU…GGAGGGAAAAGUUAUCAGGCAUGCACCUGGUAGCUAGUCUUUAAACCAAUAGAUUGCAUCGGUUUAAAAGGCAAGACCGUCAAAUUGCGGGAAAGGGGUCAACAGCCGUUCAGUACCAAGUCUCAGGGGAAACUUUGAGAUGGCCUUGCAAAGGGUAUGGUAAUAAGCUGACGGACAUGGUCCUAACCACGCAGCCAAGUCCUAAGUCAACAGAUCUUCUGUUGAUAUGGAUGCAGUUCACAGACUAAAUGUCGGUCGGGGAAGAUGUAUUCUUCUCAUAAGAUAUAGUCGGACCUCUCCUUAAUGGGAGCUAGCGGAUGAAGUGAUGCAACACUGGAGCCGCUGGGAACUAAUUUGUAUGCGAAAGUAUAUUGAUUAGUUUUGGAGUACUCGUGGUCG
How it was run: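 Library with all eight P1ex-region intron nucleotides randomised, intron inside the knt kanamycin-resistance gene on pET-22b(+), in E. coli BL21(DE3). Cells grew overnight at 37°C or 30°C on LB agar with or without 25 μg/mL kanamycin (plus 100 μg/mL carbenicillin, 50 μM IPTG, 0.2% rhamnose), in six replicate transformations. Pooled colonies were amplicon-sequenced on Illumina HiSeq 2500. DiMSum fitness is the error-weighted combination of wild-type-normalised replicate fold changes, kanamycin versus none.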

| Sequence | self-splicing fitness (ln) (30 °C) | self-splicing fitness (ln) (37 °C) |
| --- | --- | --- |
| CAGUAGCAAUAUUACGGUUU | -3.21 ± 0.22 | -0.724 ± 0.15 |
| UUUCAGCAAUAUUACGCUAG | -0.789 ± 0.084 | -0.5 ± 0.1 |
| ACCAAGCAAUAUUACGUGAC | -3.55 ± 0.13 | -1.99 ± 0.11 |
| CAGAAGCAAUAUUACGCGCA | -1.55 ± 0.17 | -0.337 ± 0.12 |
| AAUAAGCAAUAUUACGUAUU | -3.58 ± 0.17 | -2.22 ± 0.15 |
| CCGCAGCAAUAUUACGGGAU | -4.16 ± 0.33 | -1.82 ± 0.16 |
| GCAAAGCAAUAUUACGGUGG | -2.27 ± 0.12 | -2.43 ± 0.19 |
| CUGCAGCAAUAUUACGAUUG | -0.725 ± 0.06 | -0.488 ± 0.074 |
| CUAUAGCAAUAUUACGCCGG | -1.65 ± 0.21 | -0.422 ± 0.25 |
| CUUAAGCAAUAUUACGUAUG | -1.37 ± 0.056 | -1.24 ± 0.073 |
| CCAGAGCAAUAUUACGUUAC | -3.64 ± 0.46 | -1.7 ± 0.34 |
| GGUGAGCAAUAUUACGAAUU | -1.69 ± 0.36 | -0.274 ± 0.38 |
| CCAGAGCAAUAUUACGACUU | -3.55 ± 0.17 | -2.61 ± 0.23 |
| UGUGAGCAAUAUUACGAAAA | -1.47 ± 0.35 | -1.31 ± 0.46 |
| CAUAAGCAAUAUUACGCAGA | -2.5 ± 0.17 | -2.51 ± 0.17 |
| CCCAAGCAAUAUUACGGCAU | -3.63 ± 0.16 | -2.84 ± 0.17 |
| CAGUAGCAAUAUUACGCAGU | -3.52 ± 0.34 | -2.33 ± 0.22 |
| AAGCAGCAAUAUUACGGAUC | -1.81 ± 0.093 | -1 ± 0.1 |
| CGCUAGCAAUAUUACGGUUA | -2.22 ± 0.23 | -1.82 ± 0.2 |
| ACGGAGCAAUAUUACGUUAG | -2.74 ± 0.18 | -2.5 ± 0.33 |
| CCCGAGCAAUAUUACGGUUA | -2.05 ± 0.1 | -1.36 ± 0.1 |
| CGAUAGCAAUAUUACGUGUG | -0.978 ± 0.057 | -0.336 ± 0.07 |
| UUCCAGCAAUAUUACGCUUU | -3.23 ± 0.23 | -0.119 ± 0.12 |
| GUGGAGCAAUAUUACGAUCG | – | -3.31 ± 0.47 |
| CCACAGCAAUAUUACGUUCA | -3.27 ± 0.16 | -2.5 ± 0.19 |
| AGACAGCAAUAUUACGUGAA | -2.03 ± 0.14 | -0.982 ± 0.15 |

| Sequence | self-splicing fitness (ln) (30 °C) | self-splicing fitness (ln) (37 °C) |
| --- | --- | --- |
| GAGGAGCAAUAUUACGAAGG | -4.59 ± 0.46 | -2.39 ± 0.27 |
| AUAUAGCAAUAUUACGCUGG | -2.06 ± 0.2 | -1.51 ± 0.32 |
| UCCGAGCAAUAUUACGACGG | -1.46 ± 0.11 | -0.111 ± 0.17 |
| CAAAAGCAAUAUUACGGGAU | -3.95 ± 0.19 | -3.04 ± 0.22 |
| GCAGAGCAAUAUUACGUCGG | -2.57 ± 0.34 | -1.69 ± 0.46 |
| UUUUAGCAAUAUUACGCGUC | – | -1.23 ± 0.25 |
| CUCUAGCAAUAUUACGAACG | -0.887 ± 0.097 | -0.112 ± 0.11 |
| GAGUAGCAAUAUUACGGUAU | -2.6 ± 0.13 | -2.22 ± 0.2 |
| GACUAGCAAUAUUACGUCAG | -2.88 ± 0.21 | -3.7 ± 0.37 |
| ACUUAGCAAUAUUACGCAUU | -1.27 ± 0.11 | -1.47 ± 0.17 |
| AAAAAGCAAUAUUACGUGAC | -2.84 ± 0.14 | -2.31 ± 0.17 |
| AUCAAGCAAUAUUACGCUGA | -2.51 ± 0.13 | -1.46 ± 0.12 |
| GCUCAGCAAUAUUACGUGCU | -2.26 ± 0.086 | -0.582 ± 0.09 |
| CAUGAGCAAUAUUACGGCUU | -2.99 ± 0.17 | -2.92 ± 0.29 |
| GUUUAGCAAUAUUACGACAU | -0.224 ± 0.014 | 0.063 ± 0.033 |
| CUGAAGCAAUAUUACGGGAU | -1.65 ± 0.076 | -1.07 ± 0.11 |
| GAUAAGCAAUAUUACGGUGG | -2.85 ± 0.23 | -2.24 ± 0.2 |
| CGCUAGCAAUAUUACGUACA | -2.62 ± 0.14 | -1.35 ± 0.15 |
| UGAUAGCAAUAUUACGGGCU | -2.42 ± 0.13 | -2.11 ± 0.14 |
| CGCAAGCAAUAUUACGCAUG | -2.77 ± 0.11 | -2.19 ± 0.12 |
| GCCUAGCAAUAUUACGCGUU | -0.166 ± 0.068 | 0.243 ± 0.075 |
| GCAUAGCAAUAUUACGGUAC | -2.07 ± 0.097 | -1.47 ± 0.091 |
| AUCCAGCAAUAUUACGGGAA | -1.17 ± 0.079 | -0.654 ± 0.082 |
| AUGUAGCAAUAUUACGCUUC | -2.5 ± 0.23 | -2.2 ± 0.28 |
| UCAUAGCAAUAUUACGGCAC | -2.93 ± 0.5 | -2.15 ± 0.37 |
| GCAAAGCAAUAUUACGAUUA | -0.0977 ± 0.11 | -1.13 ± 0.13 |

| Sequence | self-splicing fitness (ln) (30 °C) | self-splicing fitness (ln) (37 °C) |
| --- | --- | --- |
| GUCGAGCAAUAUUACGCCAU | -2.99 ± 0.28 | -2.4 ± 0.24 |
| CCUUAGCAAUAUUACGGAAC | – | -2.73 ± 0.44 |
| ACUGAGCAAUAUUACGAGAA | -2.33 ± 0.38 | -1.96 ± 0.32 |
| CGACAGCAAUAUUACGCCCG | 0.138 ± 0.24 | – |
| UUUAAGCAAUAUUACGUGCG | -0.659 ± 0.088 | -0.486 ± 0.11 |
| CCUAAGCAAUAUUACGAUCG | -0.805 ± 0.15 | -0.185 ± 0.17 |
| ACGGAGCAAUAUUACGCUUU | -4.74 ± 0.38 | -1.98 ± 0.17 |
| ACGAAGCAAUAUUACGUGAA | -2.43 ± 0.089 | -1.64 ± 0.13 |
| CUUUAGCAAUAUUACGAUUG | -0.504 ± 0.12 | 0.118 ± 0.17 |
| GGACAGCAAUAUUACGACAC | -0.596 ± 0.1 | 0.167 ± 0.13 |
| CUACAGCAAUAUUACGCCUC | -3.9 ± 0.3 | -0.901 ± 0.34 |
| CAUUAGCAAUAUUACGAGUG | -3.06 ± 0.15 | -2.83 ± 0.2 |
| GUCUAGCAAUAUUACGGGCU | -3.5 ± 0.27 | -3.73 ± 0.3 |
| AUCGAGCAAUAUUACGCGCG | -2.29 ± 0.15 | -0.653 ± 0.16 |
| ACAGAGCAAUAUUACGGCUG | -0.984 ± 0.096 | -0.796 ± 0.13 |
| AUGAAGCAAUAUUACGAGCA | -0.665 ± 0.084 | -0.299 ± 0.083 |
| AACAAGCAAUAUUACGAAUC | -3.22 ± 0.17 | -2.24 ± 0.13 |
| CUUCAGCAAUAUUACGCACA | -2.37 ± 0.24 | – |
| CAUUAGCAAUAUUACGAUCA | -2.81 ± 0.33 | -1.46 ± 0.23 |
| CGGCAGCAAUAUUACGUAGA | -2.33 ± 0.12 | -1.19 ± 0.17 |
| CCACAGCAAUAUUACGCAGA | -3.08 ± 0.17 | -2.89 ± 0.16 |
| GCCAAGCAAUAUUACGGCCG | -1.48 ± 0.23 | -2.11 ± 0.46 |
| CCUCAGCAAUAUUACGAAAU | -3.99 ± 0.28 | -2.15 ± 0.34 |
| GGGGAGCAAUAUUACGGGCC | – | -1.4 ± 0.28 |
| UUUCAGCAAUAUUACGCUUA | -0.378 ± 0.086 | 0.0227 ± 0.12 |
